Measurements: article PMC4400868

Assay: AUC

Leucine-rich amelogenin protein, phosphorylated at S16 (LRAP(+P))
% monomers (2.5 mM CaCl2, pH 7.4): 94% monomers
monomer % (0.78 mg/mL, 50 mM NaCl, pH 7.4): 93.6%
monomer % (0.78 mg/mL, 50 mM NaCl, pH 8.0): 92.3%
monomer % (0.92 mg/mL, 150 mM NaCl, pH 8.0): 92.6%
monomer % (0.92 mg/mL, 200 mM NaCl, pH 8.0): 97.9%
monomer % (1.0 mg/mL, 50 mM NaCl, pH 5.8): 84.4%
monomer % (1.0 mg/mL, 150 mM NaCl, pH 5.8): 90.9%
monomer % (1.0 mg/mL, 150 mM NaCl, pH 7.4): 93.9%
monomer % (1.0 mg/mL, 200 mM NaCl, pH 5.8): 94.5%
monomer % (1.0 mg/mL, 200 mM NaCl, pH 7.4): 97.7%
